Data published in paper PMC6078440, “Structural and functional analysis of Dickkopf 4 (Dkk4): New insights into Dkk evolution and regulation of Wnt signaling by Dkk and Kremen proteins” (The Journal of Biological Chemistry, 2018).
Values joined by “and” are separate entries in the source; they are usually repeats but may differ in a detail not shown here. Identical values can stand only once. One block for each binder: values may come before it.

B4: full-length mature Dkk4 (Dickkopf 4), residues 19-224, His-tagged (natural protein, human, UniProt Q9UBT3 19-224, looked up)
chain: LVLDFNNIRSSADLHGARKGSQCLSDTDCNTRKFCLQPRDEKPFCATCRGLRRRCQRDAMCCPGTLCVNDVCTTMEDATPILERQLDEQDGTHAEGTTGHPVQENQPKRKPSIKKSQGRKGQEGESCLRTFDCGPGLCCARHFWTKICKPVLLEGQVCSRRGHKDTAQAPEIFQRCDCGPGLLCRSQLTSNRQHARLRVCQKIEKL
modifications: uniformly 15N/13C/2H-labelled in the NMR experiments
notes: residues numbered from the N-terminal methionine; also called Dkk4FL

Assays:
[1] = molecular target: T1, LRP6 E1E2-Fc (β-propeller domains 1 and 2 of low-density lipoprotein receptor-related protein 6, Fc fusion) (human); assay: BLI; pH 6.5
T1 chain: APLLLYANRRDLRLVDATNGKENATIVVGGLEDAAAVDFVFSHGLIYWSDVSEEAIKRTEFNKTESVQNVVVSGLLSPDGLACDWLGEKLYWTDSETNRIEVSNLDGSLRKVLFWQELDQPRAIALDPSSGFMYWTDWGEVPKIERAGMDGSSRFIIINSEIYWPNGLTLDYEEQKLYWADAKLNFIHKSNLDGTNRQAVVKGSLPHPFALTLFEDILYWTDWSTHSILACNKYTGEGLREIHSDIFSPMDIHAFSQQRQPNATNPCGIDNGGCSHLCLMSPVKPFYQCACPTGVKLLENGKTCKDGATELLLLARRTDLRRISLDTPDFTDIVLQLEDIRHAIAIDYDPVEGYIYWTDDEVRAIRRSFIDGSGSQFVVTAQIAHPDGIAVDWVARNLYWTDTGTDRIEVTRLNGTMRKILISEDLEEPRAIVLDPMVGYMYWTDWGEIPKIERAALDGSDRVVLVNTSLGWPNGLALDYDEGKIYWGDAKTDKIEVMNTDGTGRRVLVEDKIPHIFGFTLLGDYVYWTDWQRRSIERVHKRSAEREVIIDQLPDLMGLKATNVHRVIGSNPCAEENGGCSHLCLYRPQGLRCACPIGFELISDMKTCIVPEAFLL

[2] = molecular target: T2, N-terminal region of Dkk4 including CRD1, residues 19-97 (human, UniProt Q9UBT3 19-97); assay: BLI; LRP6 E1E2-Fc (200 nM) loaded on AHC biosensors; Dkk4N 0.1-100 μM; 25 mM Na2HPO4, 100 mM NaCl, 0.05% Triton X-100, pH 6.5 or 7.5 (not told which for the printed KD); later experiments with 0.1% BSA; steady-state fit to a one-site model; details: both partners purified
T2 construct: Dickkopf 4 (Dkk4), human, N-terminal region with the NXI(R/K) motif and CRD1, residues 19-97; residues numbered from the N-terminal methionine; construct details are in the supporting material; also called Dkk4N; isolated Dkk4N region; not shown: His6 (with linker), C-terminal, kept
T2 sequence (looked up): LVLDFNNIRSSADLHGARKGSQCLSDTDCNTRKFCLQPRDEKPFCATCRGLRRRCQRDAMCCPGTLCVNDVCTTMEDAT

[3] = molecular target: B4; assay: BLI; LRP6 E1E2-Fc (200 nM) loaded on AHC biosensors; Dkk4FL 1-1000 nM; 25 mM Na2HPO4, 100 mM NaCl, 0.05% Triton X-100, pH 6.5; steady-state fit to a one-site model; details: both partners purified
[4] = molecular target: T3, Kremen1 extracellular domain Fc fusion protein (human, UniProt Q96MU8 21-392); assay: BLI; Krm1 ECD-Fc loaded from supernatants on AHC biosensors; Dkk2FL or Dkk4FL 1-1000 nM, Dkk4N 0.1-100 μM; 25 mM Na2HPO4, 100 mM NaCl, 0.05% Triton X-100, pH 6.5; steady-state fit to a one-site model; details: one partner purified
T3 construct: Kremen1 (Krm1), human, extracellular domain (kringle, WSC and CUB domains); also called Krm1 ECD-Fc; Krm1 ECD; source: expressed, in cell culture medium (supernatants); host in the supporting material
T3 sequence (looked up): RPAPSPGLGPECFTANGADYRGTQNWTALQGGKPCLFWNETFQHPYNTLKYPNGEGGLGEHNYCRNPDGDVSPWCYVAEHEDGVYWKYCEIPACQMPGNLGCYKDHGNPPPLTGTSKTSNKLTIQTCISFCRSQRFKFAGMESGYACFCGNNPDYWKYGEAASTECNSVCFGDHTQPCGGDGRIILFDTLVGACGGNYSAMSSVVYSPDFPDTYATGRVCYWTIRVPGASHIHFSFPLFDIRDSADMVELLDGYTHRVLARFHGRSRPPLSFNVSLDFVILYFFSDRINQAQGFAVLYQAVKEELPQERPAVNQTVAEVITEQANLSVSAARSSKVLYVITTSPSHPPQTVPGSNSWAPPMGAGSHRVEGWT

[5] = molecular target: T1, LRP6 E1E2-Fc (β-propeller domains 1 and …); assay: BLI; pH 7.5
[6] = molecular target: T4, Kremen1 extracellular domain Fc fusion protein (human, UniProt Q96MU8 21-392); assay: BLI; pH 6.5
T4 chain: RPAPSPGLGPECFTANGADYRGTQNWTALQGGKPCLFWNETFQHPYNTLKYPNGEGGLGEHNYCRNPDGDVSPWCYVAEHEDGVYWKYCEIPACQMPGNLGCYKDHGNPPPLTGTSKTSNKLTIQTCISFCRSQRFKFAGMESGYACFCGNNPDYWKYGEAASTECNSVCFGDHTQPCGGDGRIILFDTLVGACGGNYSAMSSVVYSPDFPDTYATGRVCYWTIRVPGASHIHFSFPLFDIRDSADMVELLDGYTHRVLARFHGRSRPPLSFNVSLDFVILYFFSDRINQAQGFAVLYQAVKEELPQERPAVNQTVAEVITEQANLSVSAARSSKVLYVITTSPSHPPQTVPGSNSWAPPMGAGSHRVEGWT

[7] = molecular target: the molecule itself; assay: SEC; Superdex 75 10/300 GL, 3 μM Krm1 ECD in 50 mM Na2HPO4, 100 mM NaCl, pH 7.5; apparent masses from a calibration with globular standards; monomer and dimer

B2: LRP6 E1E2-Fc (β-propeller domains 1 and 2 of low-density lipoprotein receptor-related protein 6, Fc fusion) (Fc fusion)
chain: APLLLYANRRDLRLVDATNGKENATIVVGGLEDAAAVDFVFSHGLIYWSDVSEEAIKRTEFNKTESVQNVVVSGLLSPDGLACDWLGEKLYWTDSETNRIEVSNLDGSLRKVLFWQELDQPRAIALDPSSGFMYWTDWGEVPKIERAGMDGSSRFIIINSEIYWPNGLTLDYEEQKLYWADAKLNFIHKSNLDGTNRQAVVKGSLPHPFALTLFEDILYWTDWSTHSILACNKYTGEGLREIHSDIFSPMDIHAFSQQRQPNATNPCGIDNGGCSHLCLMSPVKPFYQCACPTGVKLLENGKTCKDGATELLLLARRTDLRRISLDTPDFTDIVLQLEDIRHAIAIDYDPVEGYIYWTDDEVRAIRRSFIDGSGSQFVVTAQIAHPDGIAVDWVARNLYWTDTGTDRIEVTRLNGTMRKILISEDLEEPRAIVLDPMVGYMYWTDWGEIPKIERAALDGSDRVVLVNTSLGWPNGLALDYDEGKIYWGDAKTDKIEVMNTDGTGRRVLVEDKIPHIFGFTLLGDYVYWTDWQRRSIERVHKRSAEREVIIDQLPDLMGLKATNVHRVIGSNPCAEENGGCSHLCLYRPQGLRCACPIGFELISDMKTCIVPEAFLL
- Kd [2]: 11 to 30 µM
- Kd [3]: 64 to 77 nM

Binder: B4
- Kd [4]: 93 to 130 nM
- Kd [5]: 48.7 nM and 55.6 nM
- Kd [6]: 93.1 nM

B5: isolated Kremen1 extracellular domain, Fc tag removed (domain or fragment, human, UniProt Q96MU8 21-392, looked up)
chain: RPAPSPGLGPECFTANGADYRGTQNWTALQGGKPCLFWNETFQHPYNTLKYPNGEGGLGEHNYCRNPDGDVSPWCYVAEHEDGVYWKYCEIPACQMPGNLGCYKDHGNPPPLTGTSKTSNKLTIQTCISFCRSQRFKFAGMESGYACFCGNNPDYWKYGEAASTECNSVCFGDHTQPCGGDGRIILFDTLVGACGGNYSAMSSVVYSPDFPDTYATGRVCYWTIRVPGASHIHFSFPLFDIRDSADMVELLDGYTHRVLARFHGRSRPPLSFNVSLDFVILYFFSDRINQAQGFAVLYQAVKEELPQERPAVNQTVAEVITEQANLSVSAARSSKVLYVITTSPSHPPQTVPGSNSWAPPMGAGSHRVEGWT
notes: Kremen1 (Krm1), human, extracellular domain (kringle, WSC and CUB domains); Eluted in SEC as monomer (35 kDa) and noncovalent dimer (70 kDa); also called Krm1 ECD; isolated Krm1 ECD; source: prepared from Krm1 ECD-Fc by removal of the Fc tag, size-exclusion chromatography; host in the supporting material
- stoichiometry N [7]: 2

Results, then the binder that gave them:

- Kd [1]: 11.1 µM
B1: N-terminal region of Dkk4 including CRD1, residues 19-97 (domain or fragment)
chain: LVLDFNNIRSSADLHGARKGSQCLSDTDCNTRKFCLQPRDEKPFCATCRGLRRRCQRDAMCCPGTLCVNDVCTTMEDAT

- Kd [4]: ~12 nM
B3: full-length mature Dkk2 (Dickkopf 2), residues 38-259, His-tagged (natural protein, human, UniProt Q9UBU2 38-259, looked up)
chain: IKSSLGGETPGQAANRSAGMYQGLAFGGSKKGKNLGQAYPCSSDKECEVGRYCHSPHQGSSACMVCRRKKKRCHRDGMCCPSTRCNNGICIPVTESILTPHIPALDGTRHRDRNHGHYSNHDLGWQNLGRPHTKMSHIKGHEGDPCLRSSDCIEGFCCARHFWTKICKPVLHQGEVCTKQRKKGSHGLEIFQRCDCAKGLSCKVWKDATYSSKARLHVCQKI
notes: also called Dkk2FL
